Data taken from patent US20260242478A1 (published 2026).
Where no end group is shown, it is not given here.

B1: Phage-1483 (peptide, not shown: large carriers)
peptide: QCAAGAMWTWPACF
notes: Clonal phage of the Peptide-92 optimisation library, tested as crude phage supernatant
B2: Phage-1476 (peptide, not shown: large carriers)
peptide: TCAAGASFPWPWCL
modifications: cysteine pairing not given here; also: fused to phage pIII protein, pIII and linker not given here
notes: as for B1
B3: Phage-1487 (peptide, not shown: large carriers)
peptide: TCAAGAHYAWPECF
notes: as for B1
B4: Phage-1479 (peptide, not shown: large carriers)
peptide: WCAAVFSYSWPLCL
modifications: cysteine pairing not given here; also: displayed as fusion to phage pIII, pIII and linker not given here
notes: as for B1
B5: Phage-1475 (peptide, not shown: large carriers)
peptide: MCAAGAMYAWPTCL
modifications: cysteine pairing not given here; also: fused to phage pIII protein, pIII and linker not given here
notes: as for B1
B6: Phage-1486 (peptide, not shown: large carriers)
peptide: TCAAGAVWGWPLCF
notes: as for B1
B7: Phage-1485 (peptide, not shown: large carriers)
peptide: TCAAGATYPWPSCL
notes: as for B1
B8: Phage-1489 (peptide, not shown: large carriers)
peptide: WCAAGATWPWPLCI
notes: as for B1
B9: Phage-1484 (peptide, not shown: large carriers)
peptide: MCSAGATYPWPMCL
notes: as for B1
B10: Phage-1481 (peptide, not shown: large carriers)
peptide: LCEEFFHYSWPVCL
modifications: cysteine pairing not given here; also: displayed as fusion to phage pIII, pIII and linker not given here
notes: as for B1
B11: Phage-1482 (peptide, not shown: large carriers)
peptide: TCAAGAAWPWPHCL
modifications: cysteine pairing not given here; also: displayed as fusion to phage pIII, pIII and linker not given here
notes: as for B1
B12: Phage-1478 (peptide, not shown: large carriers)
peptide: TCSAGAMYPWPWCV
modifications: cysteine pairing not given here; also: fused to phage pIII protein, pIII and linker not given here
notes: as for B1
B13: Phage-1477 (peptide, not shown: large carriers)
peptide: SCAAVFPYPWPPCF
modifications: cysteine pairing not given here; also: fused to phage pIII protein, pIII and linker not given here
notes: as for B1
B14: Phage-1488 (peptide, not shown: large carriers)
peptide: RCRAGFSYNWPYCM
notes: as for B1
B15: Phage-1480 (peptide, not shown: large carriers)
peptide: GCAAGFHYPWPLCL
modifications: cysteine pairing not given here; also: displayed as fusion to phage pIII, pIII and linker not given here
notes: as for B1
B16: Phage-1535 (peptide)
peptide: SCKAGAPYYWPGCF
notes: tested as crude phage supernatant
B17: Phage-1536 (peptide)
peptide: TCSAVFSYTWSNCF
notes: as for B16
B18: Phage-1543 (peptide)
peptide: TCEAVFIYSWPFCL
notes: as for B16
B19: Phage-1544 (peptide)
peptide: LCSAGAMWQWPTCL
notes: as for B16
B20: Phage-1546 (peptide)
peptide: TCAAGATWDWPLCF
notes: as for B16
B21: Phage-1532 (peptide)
peptide: SCSAGAAWPWPWCL
notes: as for B16
B22: Phage-1538 (peptide)
peptide: TCAAGAAWEWPICF
notes: as for B16
B23: Phage-1537 (peptide)
peptide: QCAAGAMWTWPACF
notes: as for B16
B24: Phage-1541 (peptide)
peptide: TCAAGASWEWPLCF
notes: as for B16
B25: Phage-1542 (peptide)
peptide: TCSAGATYVWPDCF
notes: as for B16
B26: Phage-1539 (peptide)
peptide: TCAAGAMWNWPQCY
notes: as for B16
B27: Phage-1533 (peptide)
peptide: LCAEGFDYSWPMCL
notes: as for B16
B28: Phage-1545 (peptide)
peptide: LCAEGADYPWPMCL
notes: as for B16
B29: Phage-1534 (peptide)
peptide: TCSAGATYSWPFCF
notes: as for B16
B30: Phage-1540 (peptide)
peptide: SCSAGAMYPWPMCL
notes: as for B16
B31: Phage-1577 (peptide)
peptide: RCSFRFITLAEACV
notes: also called Peptide-92 library clone
B32: Phage-1580 (peptide)
peptide: LCSAGFLFQWSTCL
notes: as for B31
B33: Phage-1578 (peptide)
peptide: TCSAGAHYPWPICL
notes: as for B31
B34: Phage-1576 (peptide)
peptide: SCSAGASLQLSQCF
notes: as for B31
B35: Phage-1579 (peptide)
peptide: TCAAGAQFAWPLCL
notes: as for B31
B36: Phage-1586 (peptide)
peptide: LCAAGAHYSWPACF
notes: as for B31
B37: Phage-1583 (peptide)
peptide: PCAAGAMWPWPVCL
notes: as for B31
B38: Phage-1582 (peptide)
peptide: GCAAGASYPWPACL
notes: as for B31
B39: Phage-1581 (peptide)
peptide: RCAAGFHYSWPNCF
notes: as for B31
B40: Phage-1587 (peptide)
peptide: PCSAGVTYAWLYCV
notes: as for B31
B41: Phage-1585 (peptide)
peptide: TCAAGASWNWPACE
notes: Read from the row with '-' = Peptide-92 residue: TCAAGASWNWPACE; also called Peptide-92 library clone
B42: Phage-1584 (peptide)
peptide: TCSAGATYSWPACL
notes: as for B31

Target: T1, Anti-CD28 Fab (SEQ ID NOs: 696, 697)
T1 construct: In the phage ELISA the Fab was biotinylated and captured on neutravidin coated plates
Experiment: phage binding ELISA; Fab-coated wells pre-incubated with CD28 antigen as competitor;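 also: clonal phage supernatants added to wells preincubated with CD28 antigen or blocking buffer only, bound phage detected with HRP-conjugated anti-M13 antibody, buffer-only wells as control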
T1 sequence (VH, as listed by the source, chain 1 of 2): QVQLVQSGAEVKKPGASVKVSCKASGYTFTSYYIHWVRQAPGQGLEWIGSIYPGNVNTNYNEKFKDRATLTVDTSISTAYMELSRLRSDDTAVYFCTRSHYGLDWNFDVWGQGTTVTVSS
T1 sequence (VL, as listed by the source, chain 2 of 2): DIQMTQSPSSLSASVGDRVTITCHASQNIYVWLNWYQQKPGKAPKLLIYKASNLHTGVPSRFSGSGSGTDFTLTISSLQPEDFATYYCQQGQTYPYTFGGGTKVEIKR
Procedure: (§1) Clonal phage were harvested as crude supematants and screened via standard ELISAs. […] Prior to the addition of clonal phage, wells were incubated with blocking buffer and CD28 antigen or blocking buffer alone. Without washing or aspirating, clonal phage supematants were then added to the wells and incubated for a short time. Wells were then washed followed by detection of bound phage using a horse radish conjugated anti-M13 antibody.

Binder	Anti-CD28 Fab signal in the presence of CD28
B1	0.07
B2	0.06
B3	0.06
B4	0.06
B5	0.09
B6	0.06
B7	0.05
B8	0.17
B9	0.06
B10	0.06
B11	0.06
B12	0.08
B13	0.06
B14	0.06
B15	0.08

Target: T2, Anti-CD28 Fab (SEQ ID NOs: 696, 697)
T2 construct: Biotinylated and captured on neutravidin coated plates in the phage ELISA
Experiment: phage binding ELISA on captured anti-CD28 Fab; competitor: CD28 antigen pre-incubated in the well;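 also: clonal phage supernatants added briefly to wells preblocked with or without CD28, bound phage detected through an HRP-linked anti-M13 antibody, wells with blocking buffer alone as comparison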
T2 sequence (VH, as listed by the source, chain 1 of 2): as the sequence (VH, as listed by the source, chain 1 of 2) above
T2 sequence (VL, as listed by the source, chain 2 of 2): as the sequence (VL, as listed by the source, chain 2 of 2) above
Procedure: (§2) Clonal phage were harvested as crude supematants and screened via standard ELISAs. […] Prior to the addition of clonal phage, wells were incubated with blocking buffer and CD28 antigen or blocking buffer alone. Without washing or aspirating, clonal phage supematants were then added to the wells and incubated for a short time. Wells were then washed followed by detection of bound phage using a horse radish conjugated anti-M13 antibody. Clonal phage of interest were then sent for sequence analysis.

Binder	Anti-CD28 Fab signal in the presence of CD28
B16	0.08
B17	0.06
B18	0.08
B19	0.05
B20	0.06
B21	0.08
B22	0.06
B23	0.06
B24	0.08
B25	0.09
B26	0.07
B27	0.08
B28	0.08
B29	0.07
B30	0.06

Target: T1, Anti-CD28 Fab (SEQ ID NOs: 696, 697)
Experiment: phage binding ELISA; biotinylated anti-CD28 Fab on neutravidin plate, bound phage detected with anti-M13 HRP
Procedure: as §1

Binder	Anti-CD28 Fab (SEQ ID NOs: 696, 697) signal
B1	1.73
B2	1.75
B3	1.72
B4	1.75
B5	1.75
B6	1.73
B7	1.73
B8	1.7
B9	1.73
B10	1.74
B11	1.73
B12	1.75
B13	1.75
B14	1.72
B15	1.74

Target: T2, Anti-CD28 Fab (SEQ ID NOs: 696, 697)
Experiment: phage binding ELISA; biotinylated anti-CD28 Fab on neutravidin plate, bound phage detected with anti-M13-HRP;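 also: clonal phage tested as crude supernatants, given a short incubation in the Fab-captured wells before bound phage were read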
Procedure: as §2

Binder	Anti-CD28 Fab (SEQ ID NOs: 696, 697) signal
B16	1.54
B17	1.54
B18	1.52
B19	1.51
B20	1.51
B21	1.55
B22	1.54
B23	1.54
B24	1.52
B25	1.52
B26	1.54
B27	1.55
B28	1.51
B29	1.55
B30	1.53

Target: Anti-CD28 Fab (SEQ ID NOs: 696, 697)
Experiment: phage binding ELISA; Fab-coated wells pre-incubated with saturating CD28 antigen as competitor, anti-M13 HRP detection
Target sequence in this assay (VH, as listed by the source, chain 1 of 2): as the sequence (VH, as listed by the source, chain 1 of 2) above
Target sequence in this assay (VL, as listed by the source, chain 2 of 2): as the sequence (VL, as listed by the source, chain 2 of 2) above
Procedure: as §1

Binder	Anti-CD28 Fab signal in the presence of CD28
B31	0.08
B32	0.06
B33	0.08
B34	0.05
B35	0.07
B36	0.09
B37	0.06
B38	0.06
B39	0.06
B40	0.06
B41	0.07
B42	0.06

Target: Anti-CD28 Fab (SEQ ID NOs: 696, 697)
Experiment: phage binding ELISA; biotinylated anti-CD28 Fab on neutravidin plate, clonal phage supernatant, anti-M13 HRP detection;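 also: wells pretreated with blocking buffer, either plus or minus CD28 antigen, then given crude phage supernatant briefly without washing in between, then washed before anti-M13 HRP readout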
Target sequence in this assay (VH, as listed by the source, chain 1 of 2): as the sequence (VH, as listed by the source, chain 1 of 2) above
Target sequence in this assay (VL, as listed by the source, chain 2 of 2): as the sequence (VL, as listed by the source, chain 2 of 2) above
Procedure: as §1

Binder	Anti-CD28 Fab (SEQ ID NOs: 696, 697) signal
B31	1.41
B32	1.41
B33	1.41
B34	1.41
B35	1.41
B36	1.41
B37	1.41
B38	1.41
B39	1.41
B40	1.41
B41	1.41
B42	1.41
